Here are results for 19 sequences from a protein production outcome set (Wang et al. 2014).

The nature of this data set: label from the status in PepcDB records.

Consider “MMCRSITLFLFALISIVVGKQLSAQSISELRLLIDSGRYDRALPIAQQLVAKNPKHADNNYMLGLLLYKAERYEEAIAPLRVAVSRRSDAYEMLADAYAKEYFFSEALAALEKQKVTLVKKKQETVSIDAGIDRMRRAVRLLDRAEWVEVIDSVRTNKADLLSAYNLIADNGRLEWVKGNQGEATSFVNGRGDHAIMTEKGEDGVYSLHEAHRIGGKWGNAIPLEKLNSRFNENYPSLRADGFTLLFASDRPDGIGGYDLYMTRRDLEDGIFLEPTLLGMPFNSPYNDYLLVYDELRGIGFFASDRFCPADVVTVYTFVINEEGRPVATDDMALKRAYASLKSIRATQDPERDYSRLIASARDNRTDAEKKASERQIYFPMQGMRIYTRWSDFQSSEAKSLYQDVMARKRKLEQAATRLEELRLLYGRASALERSGMKQEILRLENAIPPLEEEVGRMEKEVRNMELQAVQGF”, for which the protein production result is “failed”. Take “MMDNDNSLNKRPTFKRALRNISMTSIFITMMLIWLLLSVTSVLTLKQYAQKNLALTAATMTYSLEAAVVFADGPAATETLAALGQQGQFSTAEVRDKQQNILASWHYTRKDPGDTFSNFISHWLFPAPIIQPIRHNGETIGEVRLTARDSSISHFIWFSLAVLTGCILLASGIAITLTRHLHNGLVEALKNITDVVHDVRSNRNFSRRVSEERIAEFHRFALDFNSLLDEMEEWQLRLQAKNAQLLRTALHDPLTGLANRAAFRSGINTLMNNSDARKTSALLFLDGDNFKYINDTWGHATGDRVLIEIAKRLAEFGGLRHKAYRLGGDEFAMVLYDVQSESEVQQICSALTQIFNLPFDLHNGHQTTMTLSIGYAMTIEHASAEKLQELADHNMYQAKHQRAEKLVR”: the protein production entry is on record as “failed”. To “MMEMITIKPGKITVQANPNMPKEVAELFRKQHYEIVGRHSGVKLCHWLKKSLTEGRFCYKQKFYGIHSHRCLQMTPVLAWCTHNCIFCWRPMENFLGTELPQPWDDPAFIVEESIKAQRKLLIGYKGNPKVDKKKFEEAWNPTHAAISLSGEPMLYPYMGDLVEEFHKRGFTTFIVTNGTIPERLEEMIKEDKLPTQLYVSITAPDIETYNSVNIPMIPDGWERILRFLELMRDLPTRTVVRLTLVKGENMHSPEKYAKLILKARPMFVEAKAYMFVGYSRNRLTINNMPSHQDIREFAEALVKHLPGYHIEDEYEPSRVVLIMRDDVDPQGTGVEGRFIKH” belongs “not failed”; to “MMENQVNEQTVTSPENGSSATGYNSGIWDGLSVVALIGGAIASVVLPANPAAGVIPVAAGVGLHLFNRKQLEEHLLANQRATAAQIVQLVNQNQAHLQEYLQKFQGDIQTSLGQQQQAIAANQENLTKALAEKSLALQGKLEAFQAAAAQTHAGLDIKHQDLLAVVTELRTMEGCTQSLAAYPHAEAYYQRGLSHYRLEDWAEAVRDCTEAIRLRGDLAGAFHHRGMAYARLDNRKQATDDLRQAYKLYFDQGDLDSYEVARALHKQYYEGPVEDLELEPTPVMPPAEGVGHEAYIADPDREIKPLLAEESDTTAANLFG”, “failed”; to “MMEQKIMEVLRRMQAILDEACLRDLKTVLQVVFEGCEISQEKRELRVPDRSWAIDLEEYLMSKALEGKSPGTVDRYRYELQRLLSYVNKAVRDITEGDISGYMRAYKAIRQVSNQTLKNVRAVYSSFFAWLRDRDRIRRNPMALVEAIKVEQKIRKPYTDEEREMLLRNCSTLRDKAMMEFFYSTAVRVSELVTLNRDDIRFTSKDLIVFGKGSKERRVYLNDRTNLYMKEYLDSRTDGSPALIVSIRRPHSRLSKTGIEDIIRRTGQRAGVEKAHPHRFRRTSLTNALNRGMPLQEAMVMAGHAKPETTMGYCTVDQEGVKYHHQKYLSA”, “failed”. Then “MMESGAGFVAMEERISPGSFFQYPLSGFRASPNRSPCPPSDRERYLTELLQERQKLGPFLQVMPNCCRLLNHEIRRVSSFPDLDRYEHGSPFRSLGQPTNGKLDLEGWSMMQAEVSHC”, with “failed”. For the sequence “MMFDEFKRTILREDIKYEIFRKFFHIFSLIVLVFYRINFWIGLFSNILFMILYLSSEIFRITEKKILFFKNISNIILKSRKILPNRVSFSPVFLFLGILISYCLSMHPFNYIGIFSVCLGDGFASLIGKLIPSFKLVNGKTISGSLVVFCVTFFSYYYFFPYLTVALILGILAVLVELFDAANYDNLFLPLVVSASSYFLTSFFYSQ”, the protein production entry was “failed”. As to “MMFLSKTLTSLGQWPHSLPRISLMDRYVARQLIPPFLFSVGVVASLGLAIGNLSDLGNKIVEKNLPVAKAAEVLLLKVPEFLAYSLPVAVMLATMMTFGRLSGDCEIIAIRSCGVSLYRLILPAVVLSLLVTGWAFVLTEWVVPVANYRATSILIESIDEEHPFWQNRDVFYPEFEEIKLDNGQTARRLKSLVYAEKFDGKEMQNLTVLQWTENHLKHIVLSDNATWNNDNKRWDFFHGTVYRLTETEDYQEAVPFTNKQIALPQSAFDFARQGRDPYEMTIAEAQDYIKILKLIGDEKKTQFFQVRTEQKLAFPFVCIVFAVVGSAIGARPQRISRATGFGLTIVIIFAYYILGFFSGSLGIVGLISPTLAAWLPNFVGLGVGIWLLYEFNQG”, the protein production result is listed as “failed”. Then “MMGLKAHAMVLEKFNQPLVYKEFEISDIPRGSILVEILSAGVCGSDVHMFRGEDPRVPLPIILGHEGAGRVVEVNGEKRDLNGELLKPGDLIVWNRGITCGECYWCKVSKEPYLCPNRKVYGINRGCSEYPHLRGCYSSHIVLDPETDVLKVSEKDDLDVLAMAMCSGATAYHAFDEYPESFAGKTVVIQGAGPLGLFGVVIARSLGAENVIVIAGSPNRLKLAEEIGADLTLNRRETSVEERRKAIMDITHGRGADFILEATGDSRALLEGSELLRRGGFYSVAGVAVPQDPVPFKVYEWLVLKNATFKGIWVSDTSHFVKTVSITSRNYQLLSKLITHRLPLKEANKALELMESREALKVILYPEG”, with “not failed”. To “MMHPVASSNPAFCGPGKPSCLNEDAMRAADQFDIYSSQQSKYSHTVNHKPMVCQRQDPLNETHLQTTSGRSIEIKDELKKKKNLNRSGKRGRPSGTTKSAGYRTSTGRPLGTTKAAGFKTSPGRPLGTTKAAGYKVSPGRPPGSIKALSRLADLGYGCGTAAFPYPMMHGRAVHGVEETSSEVKPPNE” belongs “failed”; to “MMIDPELRPAFLPAGKLRAAINLGNPILAGTDAAGQAVGVSVDLAREFARRLNAGIELRVFDTAGQSVDAVTREEADIGFFAIDPARGAGIAFTGPYVLIEGAYLVRDDSPLQANEDVDRAGKRVTVGKGSAYDLHLTRALQHLEHHHHHH”, “not failed”.

On to “MMIIIRVAIMISVVFYLYFIINLLLINHYREPIQSYEKGPTPYELFLVIPVLNEEHVISRTITQLTESLEQLPPTVHAQIIAVDDDSTDHSLLLLTQSSSRFLQILHRTGNQRAGKGAVLNTAVQYIHKTLALKSDPQRTIVGVLDADAFMNTADLTRVLAHFEQEPQLAMIQTSVNIYNQPNWLTKMQNFEFMGVNNATQQLRNRLGQGIASGNGQFVRLDLALQNPWGNSLLEDLEFTLRTWLLGGTRTAFDHTLVVQQEAVEQLRPFFRQRVRWCQGAVQCMRYLPALWRSGRLNHFQKLDTTFWILMPISGCIVPLTSLITLVVLVSRSLQHWQVGWHHLAIGTLLVIAFSACLVLAALYQRNCAVVKQPVGFLDALKQSLTFQAFLLIISLTPYVAIYRQLRGQTGWAKTHHGVTTRVAKYPDTGLKRSY”, for which the protein production entry is reported as “failed”. Turning to “MMIMLSKRPVAMRIALRPLALAASLILSTPFALNATTFGTDLLEGQVLDGIGTGAGNLGTVADIQNTLSNMLRDEAAIGTLASVLPQALQRLPDDRQLRLLQAVVWAATRRDDDARAQMAQIGQEPPNVWRHVAEGLIARNAGDLARAAASLDEARALDPDNAYVHNTAGSIAFAAGDLEAAQEHFAQAVKSAPGWPRLLRQPCRHDDRTRQSARGPDHSGRKPPSPSRLLRHPPDGGRGASVARAVGCCRSRAAHLP”, the protein production entry is recorded as “failed”.

Turning to “MMITRGGAKAAKSLLVAAGPRLFSTVRTVSSHEALSASHILKPGVTSAWIWTRAPTIGGMRFASTITLGEKTPMKEEDANQKKTENESTGGDAAGGNNKGDKGIASYWGVEPNKITKEDGSEWKWNCFRPWETYKADITIDLKKHHVPTTFLDRIAYWTVKSLRWPTDLFFQRRYGCRAMMLETVAAVPGMVGGMLLHCKSLRRFEQSGGWIKALLEEAENERMHLMTFMEVAKPKWYERALVITVQGVFFNAYFLGYLISPKFAHRMVGYLEEEAIHSYTEFLKELDKGNIENVPAPAIAIDYWRLPADATLRDVVMVVRADEAHHRDVNHFASDIHYQGRELKEAPAPIGYH”, the protein production entry was “failed”.

“MMKEKLESKKDEIRCCYKITDTDVAVLLKMVEIEKPITSEELADIFKLSKTTVENSLKKLIELGLVVRTKTEGKKIGRPKYYYSISSNILEKIRNDLLNCAKRMELAAT”: the protein production entry was “not failed”. To “MMKEMTVQQMTEKVLNKESLFILDVRNESDFRDWKIEGENFAYLNVPYFELVHGVDSIVDRLPKDQDIVVVCAKGGSAAFVAEQLAEAGFDNVYTLAGGMQAWSEHLHQAKVYEDDQLKIYQFIRVGKGCLSYMVLSGDEALVVDPLRFIDVYEQVAQQEGVTITHIVDSHLHADHLSGGKALAERTGAAYYLMKSEGAVFDFEPLEQHETIDFENVHLEVLAVKTPGHTPGSVSFFVNGKWLFSGDTIFVGGLGRPDLGGKVAEWAEDLYHTVYEKVAAMADDVIVLPAHYANLDEEINAEGYVGDTLGRIRARNEMMQNKAKDEFIDLVIQGAKTETPPNFEDIVAINRGLKTVDIETQRELEIGPNRCALHHTHA” belongs “failed”; to “MMKIFIRILLLFYYVFILLACGDKKESISINYILMARVTNMQTDEIKIDTPSRTIFIKLITGGDLSNVHVNLTLAKGVEMVEPANTESVYDFTKPASVTLKYKEEIITYHFIIDTEYNIVDPATLGWVKSTEWGTLPDYLAIYKSPSTLKGKNAVAYIAVADMDKNASFSVLGNATGVKTLTQFYNAESVKPAIVMNGGYFASNGATVSLLYRNNVMLAPNLQSMSRSDGTSNVAFYPTRSAFGEIENGKFEVNWVYTVSSGQTYAYPAPSPNKSGVSPMQIPSVNYPEGASIWKAKNAIGGGPVLLKNGLYKNTWEAELFDTASGIGPTSNNPRSAIGITGDNRLIFFVCEGRNKTPNVPGFTLEEVAYILRDLGCLDAMNLDGGGSSCMLVNGQETIKPSDGAQRSVTTAVAIK”, “failed”; to “MMKKSATTSSACNGCPAHSGNKLRRMGTDAERYDFTIALAGNPNTGKSTVFNALTGLKQHTGNWPGKTVEKAEGAFSYAGSSYKIVDLPGTYSLLSTSEDEEIARDFILFGKPDVTLIVADATRLERNMNLILQILEITDRAVLCANLMDEAERNGVEIDLRGLSRRLGIPVVGASARSGEGISDLLSALSEVAQGIYRCTPHRLTSIGTEIDTRIDSLAESIRLFHPDTPNSRWLALRLTEGDRRVENILYADNEAPAEKLKKEVDEFRRNFGEDLHDQLSEALYSDAGKICQEVITQANKRGRTPLDIKIDRIVTSRKWGFPIMLLMLALVLWITIVGSNYPSQWLSDSLVGILHPLLKTRATGFLPDWLSGFLIDGVYLATAWVVSVMLPPMAIFFPLFTLLEDFGFLPRVAFNLDELFRRSGAHGKQALTMTMGFGCNAAAIINTRIIDSQRERLIAILTNNFSLCNGRWPTQILLATIFLTPAVPAYLRGVIGIGSVVAIALLGIAFMFFFSWVLSRTLLRGQVSTFNLELPPYRPPQFWQTIYKSIVDRTLVVLWRAVVFAAPAGALIWLTCNIQIGGVGIAEYLIDLLDGPGWLMGLNGVILLAYVLAIPANEIVIPTILMLTVLTTGIDGGTGAGVMFEADGTAETARLFEAGGWTMLTGINLMLFCLLHNPCSTTLFNIYKETGSRKWTLLAALIPLATGFVVTVAVAFVWRLVGG”, “failed”. To “MMLGPEGGEGYVVKLRGLPWSCSIEDVQNFLSDCTIHDGVAGVHFIYTREGRQSGEAFVELESEDDVKLALKKDRESMGHRYIEVFKSHRTEMDWVLKHSGPNSA” belongs “not failed”.
